The chains are these.
B1: glmS ribozyme (parent)
chain: AUAAAAGCGCCAGAACUACAGAAAUGUAGUUGACGAGGAGGAGGUUUAUCGAAUUUUCGGCGGAUGCCUCCAAA

Settings in all cases: with glucosamine-6-phosphate
Data set [1] covers variants of B1. As to the kind of experiment: kcat; higher = faster cleavage; RNA array. The essentials: (§1)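 Barcoded ribozyme variants, transcribed in situ by E. coli RNA polymerase on sequenced MiSeq chips, were followed via a hybridised Cy3 probe at 37 °C. Glucosamine-6-phosphate ranged from 40 μM to 10 mM in HEPES/KCl/Mg(OAc)2 buffer. kobs came from decay fits to per-tile medians, and kcat and KM from weighted Michaelis–Menten fits.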

In data set [2] the parent is B1. As to the kind of experiment: self-cleavage kobs at 40 uM GlcN6P; higher = faster cleavage; RNA array. In short, it runs like this:
as §1

Variants of B1 are the subject of data set [3]. As to the kind of experiment: self-cleavage kobs at 640 uM GlcN6P; higher = faster cleavage; RNA array. The essentials: as §1
In data set [4] the parent is B1. As to the kind of experiment: self-cleavage kobs at 2500 uM GlcN6P; higher = faster cleavage; RNA array. The essentials: as §1
Variants of B1 are the subject of data set [5]. As to the kind of experiment: self-cleavage kobs at 10000 uM GlcN6P; higher = faster cleavage; RNA array. In short, it runs like this:
as §1

In data set [6] the parent is B1. The data set can be described thus: self-cleavage kobs at 160 uM GlcN6P; higher = faster cleavage; RNA array. In short, it runs like this:
as §1

In data set [7] the parent is B1. The data set can be described thus: KM; higher = weaker cofactor use; RNA array. The essentials:
as §1

± gives the standard error. For some assays here: This sample holds only a part of the variants without activity.

Turning to C34U G35A C68U, the catalytic constant (kcat) with glucosamine-6-phosphate [1] is 1.41e-05 ± 3.1e-06 s⁻¹.
Turning to A33C G62C, in the data set with glucosamine-6-phosphate [2], the “self-cleavage kobs at 40 uM GlcN6P” value was below 1e-05 s⁻¹. For the same variant, the “self-cleavage kobs at 640 uM GlcN6P” value with glucosamine-6-phosphate [3] was below 1e-05 s⁻¹. Further, in the data set with glucosamine-6-phosphate [4], the “self-cleavage kobs at 2500 uM GlcN6P” value was below 1e-05 s⁻¹. Besides, the “self-cleavage kobs at 10000 uM GlcN6P” value with glucosamine-6-phosphate [5] was below 1e-05 s⁻¹.
Turning to C50G A53U G63U U69A, in the data set with glucosamine-6-phosphate [2], the “self-cleavage kobs at 40 uM GlcN6P” value is 0.00027 ± 6.1e-05 s⁻¹. Moreover, the “self-cleavage kobs at 160 uM GlcN6P” value with glucosamine-6-phosphate [6] is 0.000207 ± 5.6e-05 s⁻¹. Further, in the data set with glucosamine-6-phosphate [4], the “self-cleavage kobs at 2500 uM GlcN6P” value was 0.000121 ± 3.5e-05 s⁻¹. In addition, the “self-cleavage kobs at 10000 uM GlcN6P” value in the data set with glucosamine-6-phosphate [5] stood at 0.000127 ± 2.4e-05 s⁻¹.
Consider A15U U56A, for which the “self-cleavage kobs at 40 uM GlcN6P” value with glucosamine-6-phosphate [2] came to 0.000156 ± 3.4e-05 s⁻¹. In the data set with glucosamine-6-phosphate [6], the “self-cleavage kobs at 160 uM GlcN6P” value stood at 0.000209 ± 4.3e-05 s⁻¹. Besides, the “self-cleavage kobs at 640 uM GlcN6P” value with glucosamine-6-phosphate [3] was 0.00152 ± 0.00021 s⁻¹. Besides, the “self-cleavage kobs at 2500 uM GlcN6P” value with glucosamine-6-phosphate [4] turned out to be 0.00224 ± 0.00059 s⁻¹. For the same variant, the “self-cleavage kobs at 10000 uM GlcN6P” value in the data set with glucosamine-6-phosphate [5] turned out to be 0.00509 ± 0.00093 s⁻¹.
Take C8U C10U C50A C67G: the “self-cleavage kobs at 40 uM GlcN6P” value with glucosamine-6-phosphate [2] was 6.47e-05 ± 2.3e-05 s⁻¹. The “self-cleavage kobs at 10000 uM GlcN6P” value in the data set with glucosamine-6-phosphate [5] is 0.000228 ± 4.1e-05 s⁻¹.
G44C C50A: the Michaelis-Menten constant (KM) in the data set with glucosamine-6-phosphate [7] is 105 ± 18 µM.
For U55A U69A, the kcat with glucosamine-6-phosphate [1] turned out to be 9.24e-05 ± 1e-05 s⁻¹. The “self-cleavage kobs at 40 uM GlcN6P” value with glucosamine-6-phosphate [2] is 7.99e-05 ± 1.9e-05 s⁻¹. The “self-cleavage kobs at 160 uM GlcN6P” value with glucosamine-6-phosphate [6] stood at 9.45e-05 ± 2.4e-05 s⁻¹. In addition, the “self-cleavage kobs at 640 uM GlcN6P” value with glucosamine-6-phosphate [3] stood at 9.88e-05 ± 1.9e-05 s⁻¹. Also, the “self-cleavage kobs at 2500 uM GlcN6P” value with glucosamine-6-phosphate [4] turned out to be 7.93e-05 ± 1.3e-05 s⁻¹. The “self-cleavage kobs at 10000 uM GlcN6P” value with glucosamine-6-phosphate [5] was found to be 0.000129 ± 2.7e-05 s⁻¹.
For G7A A36C, in the data set with glucosamine-6-phosphate [2], the “self-cleavage kobs at 40 uM GlcN6P” value was below 1e-05 s⁻¹. In addition, the “self-cleavage kobs at 160 uM GlcN6P” value with glucosamine-6-phosphate [6] is below 1e-05 s⁻¹. The “self-cleavage kobs at 10000 uM GlcN6P” value with glucosamine-6-phosphate [5] is below 1e-05 s⁻¹.
As to A12U G29A, the “self-cleavage kobs at 40 uM GlcN6P” value in the data set with glucosamine-6-phosphate [2] turned out to be 0.00084 ± 0.00025 s⁻¹. Moreover, the “self-cleavage kobs at 160 uM GlcN6P” value in the data set with glucosamine-6-phosphate [6] was 0.000905 ± 0.0002 s⁻¹. In the data set with glucosamine-6-phosphate [3], the “self-cleavage kobs at 640 uM GlcN6P” value is 0.00253 ± 0.00054 s⁻¹. Further, in the data set with glucosamine-6-phosphate [4], the “self-cleavage kobs at 2500 uM GlcN6P” value was found to be 0.00409 ± 0.0011 s⁻¹. In the data set with glucosamine-6-phosphate [5], the “self-cleavage kobs at 10000 uM GlcN6P” value came out at 0.041 ± 0.012 s⁻¹.
For A36C C61U, in the data set with glucosamine-6-phosphate [7], the KM is 44.5 ± 18 µM.
Regarding G37C U46A, in the data set with glucosamine-6-phosphate [2], the “self-cleavage kobs at 40 uM GlcN6P” value is below 1e-05 s⁻¹. Besides, the “self-cleavage kobs at 160 uM GlcN6P” value in the data set with glucosamine-6-phosphate [6] is below 1e-05 s⁻¹. In addition, in the data set with glucosamine-6-phosphate [3], the “self-cleavage kobs at 640 uM GlcN6P” value is below 1e-05 s⁻¹. For the same variant, in the data set with glucosamine-6-phosphate [5], the “self-cleavage kobs at 10000 uM GlcN6P” value was below 1e-05 s⁻¹.
G43A G63U: in the data set with glucosamine-6-phosphate [2], the “self-cleavage kobs at 40 uM GlcN6P” value was below 1e-05 s⁻¹. Also, the “self-cleavage kobs at 160 uM GlcN6P” value with glucosamine-6-phosphate [6] is below 1e-05 s⁻¹. For the same variant, the “self-cleavage kobs at 640 uM GlcN6P” value with glucosamine-6-phosphate [3] was below 1e-05 s⁻¹.
As to G59C C70G, the turnover number (kcat) with glucosamine-6-phosphate [1] was determined as 1.6e-05 ± 3.6e-06 s⁻¹.
Turning to G38A C67U C71A, the “self-cleavage kobs at 40 uM GlcN6P” value in the data set with glucosamine-6-phosphate [2] was below 1e-05 s⁻¹. In the data set with glucosamine-6-phosphate [5], the “self-cleavage kobs at 10000 uM GlcN6P” value was below 1e-05 s⁻¹.
For A6G C61U, the “self-cleavage kobs at 40 uM GlcN6P” value with glucosamine-6-phosphate [2] was below 1e-05 s⁻¹. The “self-cleavage kobs at 160 uM GlcN6P” value in the data set with glucosamine-6-phosphate [6] is below 1e-05 s⁻¹. Also, the “self-cleavage kobs at 640 uM GlcN6P” value in the data set with glucosamine-6-phosphate [3] was below 1e-05 s⁻¹. Also, the “self-cleavage kobs at 2500 uM GlcN6P” value with glucosamine-6-phosphate [4] is below 1e-05 s⁻¹. For the same variant, in the data set with glucosamine-6-phosphate [5], the “self-cleavage kobs at 10000 uM GlcN6P” value was below 1e-05 s⁻¹.
Regarding C8U G9A A15C A36G U49C U57G, the “self-cleavage kobs at 40 uM GlcN6P” value with glucosamine-6-phosphate [2] was below 1e-05 s⁻¹.
Turning to C10U C50G, the Michaelis-Menten constant (KM) with glucosamine-6-phosphate [7] is 51.5 ± 26 µM. In addition, in the data set with glucosamine-6-phosphate [2], the “self-cleavage kobs at 40 uM GlcN6P” value is 6.14e-05 ± 1e-05 s⁻¹. Moreover, in the data set with glucosamine-6-phosphate [6], the “self-cleavage kobs at 160 uM GlcN6P” value was 9.85e-05 ± 1.3e-05 s⁻¹. Further, the “self-cleavage kobs at 640 uM GlcN6P” value with glucosamine-6-phosphate [3] is 0.000136 ± 1.7e-05 s⁻¹. Moreover, the “self-cleavage kobs at 2500 uM GlcN6P” value in the data set with glucosamine-6-phosphate [4] was found to be 0.00051 ± 0.0002 s⁻¹. The “self-cleavage kobs at 10000 uM GlcN6P” value in the data set with glucosamine-6-phosphate [5] was found to be 0.000116 ± 3e-05 s⁻¹.
On to G51A U69C, for which the “self-cleavage kobs at 40 uM GlcN6P” value with glucosamine-6-phosphate [2] is below 1e-05 s⁻¹. Besides, the “self-cleavage kobs at 10000 uM GlcN6P” value with glucosamine-6-phosphate [5] is below 1e-05 s⁻¹.
Take G7A G9U A48G: the “self-cleavage kobs at 40 uM GlcN6P” value with glucosamine-6-phosphate [2] is below 1e-05 s⁻¹.
For the variant A52U U54C, the kcat with glucosamine-6-phosphate [1] amounted to 0.000603 ± 4.5e-05 s⁻¹. Moreover, the KM with glucosamine-6-phosphate [7] was 2570 ± 310 µM. Moreover, the “self-cleavage kobs at 160 uM GlcN6P” value with glucosamine-6-phosphate [6] turned out to be 3.57e-05 ± 9.5e-06 s⁻¹. Further, the “self-cleavage kobs at 640 uM GlcN6P” value with glucosamine-6-phosphate [3] was 0.000115 ± 1.9e-05 s⁻¹. For the same variant, in the data set with glucosamine-6-phosphate [4], the “self-cleavage kobs at 2500 uM GlcN6P” value amounted to 0.000318 ± 5e-05 s⁻¹. Besides, the “self-cleavage kobs at 10000 uM GlcN6P” value in the data set with glucosamine-6-phosphate [5] came out at 0.000462 ± 8.6e-05 s⁻¹.
In the case of A33U C61U C70U, the “self-cleavage kobs at 40 uM GlcN6P” value with glucosamine-6-phosphate [2] is below 1e-05 s⁻¹. For the same variant, the “self-cleavage kobs at 2500 uM GlcN6P” value in the data set with glucosamine-6-phosphate [4] was below 1e-05 s⁻¹.

As usually defined, the kcat is the number of substrate molecules converted per active site and unit of time at saturation. Usually KM stands for the substrate concentration at which the rate is half of its maximum.
